These results are taken from PMC8422858.

This assay deals with His-tagged recombinant human apolipoprotein L3 (rHis-APOL3) (human). Nature of the assay: native MS.

As to “His-tagged recombinant human apolipoprotein L3 (rHis-APOL3) (natural protein)”, the stoichiometry N was found to be 2.
